Assay results reported in US20150125397A1, “DUAL SPECIFIC BINDING PROTEINS DIRECTED AGAINST IMMUNE CELL RECEPTORS AND AUTOANTIGENS” (ABBVIE INC., priority 2013, published 2015).

T1: mIgM (Mus musculus, UniProt P01872)
T1 sequence (P01872 1-454): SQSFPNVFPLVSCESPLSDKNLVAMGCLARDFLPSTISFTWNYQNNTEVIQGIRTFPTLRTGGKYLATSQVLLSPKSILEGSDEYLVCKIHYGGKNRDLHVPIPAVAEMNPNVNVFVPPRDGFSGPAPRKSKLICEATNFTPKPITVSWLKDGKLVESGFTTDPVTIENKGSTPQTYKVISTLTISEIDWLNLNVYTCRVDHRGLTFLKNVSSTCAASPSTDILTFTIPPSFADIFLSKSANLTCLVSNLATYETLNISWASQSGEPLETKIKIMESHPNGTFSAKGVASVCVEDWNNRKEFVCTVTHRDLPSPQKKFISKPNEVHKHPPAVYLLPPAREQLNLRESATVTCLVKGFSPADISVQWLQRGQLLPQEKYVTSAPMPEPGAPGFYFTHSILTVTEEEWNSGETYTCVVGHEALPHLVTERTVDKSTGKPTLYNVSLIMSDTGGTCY

B1: DVD3752: DVD-Ig: VD1 DNA(PA4), SS linker, VD2 mIgM (B7.6); heavy SEQ ID NO 50, light 51 (antibody)
heavy: EVQLVESGGGLVKPGGSLKLSCVASGFTFSTYAMSWVRQTPTKRLEWVATISRGGVSTYYPDTVKGRFTISRDNAKNTLYLQMSSLRSEDTAMYYCARPPTIVTTWFAYWGQGTLVTVSSASTKGPQVQLKESGPGLVKPSLTLSLTCTVSGFSLNGYGVIWVRQPPGKGLEWMGVIWGNGNTNYNSTLKSRLSISRDTSKSQVFLKMNNLQTEDTAMYFCARSENYYSSPGYFAYWGQGTLVTVSS
light: DVVMTQTPLSLPVSLGDQASISCRSSQSLVHSNGNTYLHWYLQKPGQSPKLLIYKVSNRFSGVPDRFSGSGSGTDFTLKISRVEAEDLGAYFCSQSTHVPYTFGGPTRLEIKRTVAAPNTVMTQSPTSMFISVGDRVTMNCKASQNVGSDVDWYQQKTGQSPKLLISGTSNRYTGVPDRFTGSGSGTDFTLTISNMQAEDLAVYYCLQYNYNPTFGAGTKLELKR
B2: DVD3756: DVD-Ig: VD1 mIgM (B7.6), GS linker, VD2 DNA(PA4); heavy SEQ ID NO 58, light 59 (antibody)
heavy: QVQLKESGPGLVKPSLTLSLTCTVSGFSLNGYGVIWVRQPPGKGLEWMGVIWGNGNTNYNSTLKSRLSISRDTSKSQVFLKMNNLQTEDTAMYFCARSENYYSSPGYFAYWGQGTLVTVSSGGGGSGGGGSEVQLVESGGGLVKPGGSLKLSCVASGFTFSTYAMSWVRQTPTKRLEWVATISRGGVSTYYPDTVKGRFTISRDNAKNTLYLQMSSLRSEDTAMYYCARPPTIVTTWFAYWGQGTLVTVSS
light: NTVMTQSPTSMFISVGDRVTMNCKASQNVGSDVDWYQQKTGQSPKLLISGTSNRYTGVPDRFTGSGSGTDFTLTISNMQAEDLAVYYCLQYNYNPTFGAGTKLELKRGGSGGGGSGDVVMTQTPLSLPVSLGDQASISCRSSQSLVHSNGNTYLHWYLQKPGQSPKLLIYKVSNRFSGVPDRFSGSGSGTDFTLKISRVEAEDLGAYFCSQSTHVPYTFGGPTRLEIKR
B3: DVD3757: DVD-Ig: VD1 mIgM (B7.6), SS linker, VD2 DNA(PA4); heavy SEQ ID NO 60, light 61 (antibody)
heavy: QVQLKESGPGLVKPSLTLSLTCTVSGFSLNGYGVIWVRQPPGKGLEWMGVIWGNGNTNYNSTLKSRLSISRDTSKSQVFLKMNNLQTEDTAMYFCARSENYYSSPGYFAYWGQGTLVTVSSASTKGPEVQLVESGGGLVKPGGSLKLSCVASGFTFSTYAMSWVRQTPTKRLEWVATISRGGVSTYYPDTVKGRFTISRDNAKNTLYLQMSSLRSEDTAMYYCARPPTIVTTWFAYWGQGTLVTVSS
light: NTVMTQSPTSMFISVGDRVTMNCKASQNVGSDVDWYQQKTGQSPKLLISGTSNRYTGVPDRFTGSGSGTDFTLTISNMQAEDLAVYYCLQYNYNPTFGAGTKLELKRTVAAPDVVMTQTPLSLPVSLGDQASISCRSSQSLVHSNGNTYLHWYLQKPGQSPKLLIYKVSNRFSGVPDRFSGSGSGTDFTLKISRVEAEDLGAYFCSQSTHVPYTFGGPTRLEIKR
B4: DVD3760: DVD-Ig: VD1 mIgM (B7.6), LS linker, VD2 DNA(PA4); heavy SEQ ID NO 66, light 67 (antibody)
heavy: QVQLKESGPGLVKPSLTLSLTCTVSGFSLNGYGVIWVRQPPGKGLEWMGVIWGNGNTNYNSTLKSRLSISRDTSKSQVFLKMNNLQTEDTAMYFCARSENYYSSPGYFAYWGQGTLVTVSSASTKGPSVFPLAPEVQLVESGGGLVKPGGSLKLSCVASGFTFSTYAMSWVRQTPTKRLEWVATISRGGVSTYYPDTVKGRFTISRDNAKNTLYLQMSSLRSEDTAMYYCARPPTIVTTWFAYWGQGTLVTVSS
light: B3 light

System: DNA
Experiment: Antinuclear antibody (ANA) test
Type: binding
Design: key to ANA score, relative result: (X)-(XXX) indicates relative results; (XX): (X)-(XXX) indicates relative results; (X)-(XXX) indicates relative results
Settings: 10 μg/ml; among DVD3751-DVD3760
Procedure: The cloned BWR4 and PA4 antibodies as well as the DVD-Ig proteins were tested for ANA reactivity using the ANA test kit. Briefly, the DVD-Ig proteins and antibodies were diluted to […] in blocking buffer (1% BSA in PBS). The DVD-Ig proteins and antibodies were added to separate wells of an ANA slide at 50 μl/well and incubated in a moist chamber for 2 hours at room temperature (RT). The wells were then washed 3× with PBS. To detect bound antibodies, Alexa Fluor 488 conjugated goat α-human IgG (α-hIgG) was then added at a dilution of 1:1,000 and the slide incubated in a moist chamber for 1 hour. Unbound detecting antibody was removed by immersing the slide in a jar containing PBS and incubating for 10 minutes at RT with gentle rocking. The prior step was repeated 2× and 10 μl of Prolong® Gold Antifade was added to each well and a 24 mm×60 mm #1 cover glass seated on top. The covered slide was incubated overnight at RT and then sealed by applying clear nail polish to the edges. Binding of the DVD-Ig proteins and antibodies to the slides was assessed by fluorescence microscopy.
DVD-Ig proteins DVD3751-DVD3760 were characterized by antinuclear antibody (ANA) staining at 10 μg/ml according to the method of Example 2.4.
ANA: HEp-2 human tissue culture substrate slides were incubated with 5 μg/ml of the anti-DNA-IgG2a or the DVD-Ig™ binding protein for 2 hours at RT. The slides were washed and bound antibodies were detected with Alexa-488 goat anti-human antibody or DyLight 488 goat anti-mouse antibody.

Question: B1 was tested. Which “level of ANA staining” value did it give?
Answer: The value was “highest level of staining”.

Same assay, conditions: ANA staining at 10 μg/ml

Question: Which ANA score does the source give for B2 here?
Answer: The ANA score was 1.

Question: With B3 as the molecule, how does the ANA score read?
Answer: The ANA score was 1.

Question: B4 was tested. Which ANA score did it give?
Answer: The ANA score was 1.

Question: For B1, which ANA score is on record?
Answer: The ANA score was 4.

Question: What about the “ANA score, relative result” value of the same molecule?
Answer: Its value is “(XXX)”.

System: AM14 WT B cells
Experiment: [3H]thymidine incorporation, BCR/TLR9 stimulation of AM14 WT B cells
Type: cell-based, mouse
Design: key to 3H incorporation AM14 WT, relative result: (X)-(XXX) indicates relative results; (XX): (X)-(XXX) indicates relative results; (X)-(XXX) indicates relative results; level of 3H incorporation / 3H incorporation AM14 WT: dose or concentration left out as unconfirmed
Settings: not given
Text: (§1) The AM14 B cell receptor (BCR) transgenic mouse has been described previously (Sweet et al. (2010) Autoimmun 43(8): 607-18). Briefly, AM14 is a BCR comprising the AM14 heavy chain and the Vk8 light chain that recognizes murine IgG2a (mIgG2a) of the “a” allotype. Between 95-98% of B cells in a mouse positive for the AM14 heavy chain and Vk8 light chain express the AM14 BCR. To generate AM14 B cells that are deficient in TLR9, TLR7 or FcγRIIB, the AM14 and Vk8 genes were bred to the appropriate knock out mice.
(§2) Primary murine B cells were purified by positive selection using BD Imag™ CD45R/B220 magnetic particles (BD Biosciences, San Jose, Calif.). Briefly, B cells were cultured in RPMI containing, pencillin-streptomycin, β-mercaptoethanol, and 5% heat-inactivated fetal calf serum (FCS) in 96 well flat bottom plates at a density of 4×10^5 cells/well. For stimulation through the BCR and TLR9, B cells were treated with a titration of 0.3 μg/ml-0.03 μg/ml of PA4 or 5 μg/ml to 0.15 μg/ml of a DVD-Ig protein (DVD3751, DVD3752, DVD3754, DVD3755, DVD3759 and DVD3760), unless otherwise noted. Cells were also treated with 1 μg/ml 1826, an experimental ligand for TLR9, as a control. After 24 hours, the cells were pulsed for 6 hours with [3H]thymidine (Perkin Elmer, Waltham Mass.). Incorporation of [3H]thymidine was quantified via a liquid scintillation beta counter (Trilux 1450 MicroBeta, PerkinElmer) according to standard methods.
(§3) DVD-Ig proteins DVD3751-DVD3760 were characterized by ^3H incorporation at […] according to the method of Example 2.6.

Question: For B2, which “3H incorporation AM14 WT, relative result” value is on record?
Answer: Its value is “(X)”.

Question: With B3 as the molecule, how does the “3H incorporation AM14 WT, relative result” value read?
Answer: The value was “(X)”.

Question: Which “3H incorporation AM14 WT, relative result” value does the source give for B4 here?
Answer: The value was “(X)”.

Question: B1 was tested. Which “3H incorporation AM14 WT, relative result” value did it give?
Answer: Its value is “(XX)”.

Same assay, conditions: 24 hours, then 6 hours pulse

Question: B2 was tested. Which “3H incorporation AM14 WT” value did it give?
Answer: Its value is “(7793)”.

Question: Which “3H incorporation AM14 WT” value does the source give for B3 here?
Answer: The value was “(4063)”.

Question: How did the “3H incorporation AM14 WT” value turn out when B4 was run?
Answer: Its value is “(4335)”.

Question: How did the “3H incorporation AM14 WT” value turn out when B1 was run?
Answer: Its value is “(12682)”.

System: AM14 TLR9−/− B cells
Experiment: [3H]thymidine incorporation, BCR/TLR9 stimulation of AM14 TLR9-/- B cells
Type: cell-based, mouse
Settings: at 5 mg/ml; 24 hours, then 6 hours pulse
Text: as §1, §2, §3

Question: For B2, which “3H incorporation AM14 TLR9−/−” value is on record?
Answer: The value was “(459)”.

Question: With B3 as the molecule, how does the “3H incorporation AM14 TLR9−/−” value read?
Answer: The value was “(382)”.

Question: With B4 as the molecule, how does the “3H incorporation AM14 TLR9−/−” value read?
Answer: The value was “(302)”.

Question: For B1, which “3H incorporation AM14 TLR9−/−” value is on record?
Answer: The value was “(512)”.

Target: T1, mIgM
Experiment: IgM binding ELISA (mouse IgM)
Settings: among DVD3751-DVD3760
Procedure: Reactivity of the DVD-Ig proteins with mIgM was determined by enzyme-linked immunosorbent assay (ELISA). Briefly, each well of an Ultra Cruz 96 well microtiter plate (Santa Cruz Biotechnology, Dallas, Tex.) was coated with mIgM at a concentration of 1 μg/ml in 100 μl of PBS. The plate was covered in plastic wrap and incubated overnight at 4° C. Each well of the plate was then washed 3× with 300 μl of PBST. After the final wash, 200 μl of blocking buffer (1% BSA in PBS) was added to each well and the plate incubated at RT for 2 hours. The plate was then washed as above. Rows B-H of the microtiter plate were filled with 100 μl of dilution buffer (1% BSA in PBST). The DVD-Ig proteins were then diluted to […] in dilution buffer and 147 μl of a DVD-Ig protein was added in duplicate to row A of a 96 well plate. For a ½ log dilution, 47 μl was transferred from row A to row B. The pipette tips were replaced with clean tips and 47 μl from row B was transferred to row C. The serial transfers were repeated as above until row G. To assess the binding of the secondary detection reagent to the coated IgM, the final transfer 47 μl was only transferred from G1-G10 to H1-H10 and wells H11 and H12 were left containing 100 μl of dilution buffer. To maintain a 100 μl assay volume, 47 μl was removed from wells H1-H10 and G11-G12 and discarded. After the serial dilution was completed, the plate was incubated for 1-2 hours at RT. The plate was washed as above and then 100 μl of horseradish peroxidase conjugated goat α-hIgG Fc specific, diluted 1:3,000 in dilution buffer, was added to each well. The plate was incubated for 1 hour at RT and then washed 4× as above. The plate was developed by adding 100 μl of 3′,3′,5′,5′-Tetramethylbenzidine (TMB) substrate solution to each well and incubating the plate in the dark for 10-15 minutes. The enzymatic reaction was stopped by adding 100 μl of 1M H2SO4 to each well. The plate was read at 450 nm on an EnVision 2102 multilabel reader (Perkin Elmer, Waltham, Mass.).
DVD-Ig proteins DVD3751-DVD3760 were characterized by IgM binding assay at half-log dilution starting at 10 μg/ml-0.01 μg/ml according to the method of Example 2.5.
IgM binding ELISA: Titrations of the DVD-Ig™ proteins (10 μg/ml to 0.01 μg/ml) were added to ELISA plates coated with murine IgM. Bound antibody was detected with biotinylated anti-human IgG and streptavidin-HRP. EC50 were calculated from the titration curve using Prism6.

Question: B2 was tested. Which “potency in IgM binding assay” value did it give?
Answer: The value was “highest potency”.

Question: How did the “potency in IgM binding assay” value turn out when B3 was run?
Answer: Its value is “highest potency”.

Question: Which “potency in IgM binding assay” value does the source give for B4 here?
Answer: The value was “highest potency”.

Same assay, conditions: mIgM-coated ELISA; half-log dilution 10 μg/ml-0.01 μg/ml

Question: B2 was tested. Which “IgM Binding EC50” value did it give?
Answer: The value was 0.0331 µg/mL.

Question: B3 was tested. Which “IgM Binding EC50” value did it give?
Answer: Its value is 0.04178 µg/mL.

Question: For B4, which “IgM Binding EC50” value is on record?
Answer: Its value is 0.03529 µg/mL.

Question: B1 was tested. Which “IgM Binding EC50” value did it give?
Answer: The value was 0.205 µg/mL.
